The data set in a line: Circular dichroism of secondary structure of SiNP-released peptide. Type of data set: physicochemical. To be noted: CD. An excerpt:
The behaviour of insulin-SiNPs and exenatide-SiNPs in biologically-relevant buffers depended on media pH and salinity. Both constructs aggregated in PBS, while remaining colloidally-stable in simulated small intestinal fluid (SIF) at pH 6.3 (Supplementary FIGS. 18, 19 for insulin-SiNPs and exenatide-SiNPs, respectively). PBS was used to measure the concentration of the released peptide, while SIF was used to examine secondary structure. For insulin-SiNPs (˜300 nm in diameter, particle concentration of 0.2 mg/mL), release was measured by HPLC in simulated gastric fluid (SGF) at pH 2.3, SIF at pH 6.3, and PBS at pH 7.4. […] Exenatide-SiNP dissolved in PBS in a size-dependent fashion: particles of ˜90 nm in diameter dissolved within 60 min at a particle concentration 0.2 mg/mL, while ˜200 nm diameter particles took over 3 h (Supplementary FIG. 20a). […] Parameters used were as follows: • Measurement window: 200-300 nm. • Data pitch: 0.5 nm • Band width: 2 nm • Response: 4 sec • Scanning speed 50 nm/min • Number of runs in measurement (accumulation): 8 • Temperature: Room temperature (20° C.) Insulin, L-arg solutions, mixtures and insulin core and SiNPs were measured at appropriate concentration in an ultra-low volume (1=1 mm) cuvette and at appropriate concentrations. […]
(Circular dichroism is the unequal absorption of left and right circularly polarised light.)

As to “released exenatide: exenatide released from exenatide-SiNPs in PBS”, the “secondary structure of released peptide vs free peptide” value was “comparable to that of the free peptide”.

Source of the values: patent US20220296683A1, “ORAL DELIVERY SYSTEM” (University College Dublin, priority 2019, published 2022).
